Results reported in patent US10202593B2, “Evolved sortases and uses thereof” (President and Fellows of Harvard College, priority 2013, dated 2019).
Positions count from the first letter of the chain named. Names and notes keep the numbering of the source. Read-outs that look alike come from different tables or passages of the source.

B1: eSrtA(2A-3): round 3 LAETG clone: eSrtA + K84R F122S D124G K134R K145E K162R V168I K177R I182F (protein)
chain: QAKPQIPKDKSKVAGYIEIPDADIREPVYPGPATREQLNRGVSFAEENESLDDQNISIAGHTSIGRPNYQFTNLRAAKKGSMVYFEVGNETRKYKMTSIRNVRPTAVEILDEQKGKDRQLTLFTCDDYNEETGVWETRKIFVATEVK
B2: eSrtA(4S-5): 5mut + N98D A104V A118T F122A K134R I182V (protein)
chain: QAKPQIPKDKSKVAGYIEIPDADIKEPVYPGPATREQLDRGVSFVEENESLDDQNISITGHTAIDRPNYQFTNLRAAKKGSMVYFKVGNETRKYKMTSIRNVKPTAVEVLDEQKGKDKQLTLVTCDDYNEETGVWETRKIFVATEVK
B3: 2A.6A: 5mut + A104H K138V K162R I182V (protein)
chain: B2 chain with D39N, V45H, T59A, A63F, R75K, K79V, K103R
B4: eSrtA(2A-3.5) (protein)
chain: B1 chain with R25K, S63F, G65D, R75K, E86K, R118K
B5: eSrtA(4S-3): round 3 LPESG clone: eSrtA + N98S A104T A118T F122S D124G K134R K173E K177E I182V (protein)
chain: B2 chain with D39S, V45T, A63S, D65G, K114E, K118E
B6: 4S.6B: 5mut + N98D A104V A118S F122A K134P I182V E189P (protein)
chain: B2 chain with T59S, R75P, E130P
B7: eSrtA(4S-3.5) (protein)
chain: B2 chain with D39N, V45T, A63F, R75K
B8: eSrtA(2A-6): round 6 consensus variant targeting LAETG; kinetics close to 2A.6A (protein)
chain: B2 chain with D39N, V45H, T59A, A63F, R75K, K79V, K103R

Legend:
Type in all cases: biochemical
[1] = system: LAETG (Abz-LAETGK(Dnp)-CONH2); test: In vitro sortase kinetics HPLC assay, LAETG substrate; conditions: for Specificity (relative catalytic efficiency, fold): ratio of kcat/KM between 2A (LAETG) and wt (LPETG)
Experimental: (§1) See below for details on sortase expression and purification, and on the synthesis of Abz-LPETGK(Dnp)-CONH2 (SEQ ID NO: 19). […] Reactions were initiated with the addition of enzyme and incubated at 22.5° C. for 3 to 20 minutes before quenching with 0.5 volumes of 1 M HCl. Five to ten nmol of peptide from the quenched reactions were injected onto an analytical reverse-phase Eclipse XDB-C18 HPLC column (4.6×150 mm, 5 μm, Agilent Technologies) and chromatographed using a gradient of 10 to 65% acetonitrile with 0.1% TFA in 0.1% aqueous TFA over 13 minutes. Retention times under these conditions for the Abz-LPETGK(Dnp)-CONH2 (SEQ ID NO: 19) substrate, the released GKDnp peptide, and the Abz-LPETGGG-COOH (SEQ ID NO: 20) product were 12.8, 10.4, and 9.1 min, respectively. To calculate the percent conversion, the ratio of the integrated areas of the Abz-LPETGGG-COOH (SEQ ID NO: 20) and Abz-LPETGK(Dnp)-CONH2 (SEQ ID NO: 19) peptide Abs220 peaks was compared to a standard curve generated by mixing the product and starting peptide in known ratios. To determine […] and Km, reaction rates were fit to the Michaelis-Menten equation using OriginPro 7.0 software. All kinetics values reported represent the average of at least three measurements. Percent conversion was also calculated by using the ratio of the integrated areas of the GK(Dnp)-CONH2 and Abz-LPETGK(Dnp)-CONH2 peptide Abs355 peaks were compared directly (Example 5). To determine kcat and Km, LPETG, reaction rates were fit to the Michaelis-Menten equation using Microsoft Excel using the Solver add-in. To determine Km,GGG and KH, reaction rates were fit to the modified Michaelis-Menten, for which KH is as defined when KH<<Km,GGG.
(§2) Assays to determine eSrtA, eSrtA(2A-9) and eSrtA(4S-9) specificity were performed by preparing 10 μM stocks of Abz-LXEXGK(Dnp) (SEQ ID NO: 75) peptides in 300 mM Tris pH 7.5, 150 mM NaCl, 5 mM CaCl2, 5% v/v DMSO, and 100 mM Gly-Gly-Gly-COOH (GGG). Reactions were performed by adding eSrtA(2A-9) to a final concentration of 450 nM, eSrtA(4S-9) to a final concentration of 115 nM or eSrtA to a final concentration of 47.5 nM and a final volume of 100 μL, then incubating at 22.5° C. for 15 minutes. Reactions were quenched by the addition of 0.2 volumes of 5 M HCl, then were injected onto an analytical reverse-phase Eclipse XDB-C18 HPLC column (4.6×150 mm, 5 μm, Agilent Technologies) and chromatographed using a gradient of 10 to 65% acetonitrile with 0.1% TFA in 0.1% aqueous TFA over 13 minutes. Retention times under these conditions for the Abz-LPETGK(Dnp)-CONH2 (SEQ ID NO: 19) substrate, the released GKDnp peptide, and the Abz-LPETGGG-COOH (SEQ ID NO: 20) product were 12.8, 10.4, and 9.1 min, respectively, while the remaining Abz-LXEXGK(Dnp)-CONH2 (SEQ ID NO: 74) substrates varied in retention time between 9 and 13 minutes. To calculate the percent conversion, the ratio of the integrated areas of the GK(Dnp)-CONH2 and Abz-LPETGK(Dnp)-CONH2 (SEQ ID NO: 19) peptide Abs355 peaks were compared directly. Subsequent determination of kcat/Km and KH were performed as described for in vitro SrtA characterization.
(§3) In each case, rate constants were determined by measuring enzyme velocity at eight different substrate concentrations by HPLC assay, then fit using nonlinear regression to the Michaelis-Menten equation, yielding kcat and Km. KH was calculated by measuring enzyme velocity at 1 mM target substrate and eight different GGG concentrations by HPLC assay, then fitting the resulting curves using nonlinear regression to the modified Michaelis-Menten equation.

[2] = system: LPETG (Abz-LPETGK(Dnp)-CONH2); test: In vitro sortase kinetics HPLC assay, LPETG substrate; conditions: substrate wt (LPETG)
Experimental: as §1, §2, §3

[3] = system: LPESG (Abz-LPESGK(Dnp)-CONH2); test: In vitro sortase kinetics HPLC assay, LPESG substrate; conditions: for kcat, 1 mM LxExG (Hz) / kHydrolysis (Hz): GGG varied; for Specificity: 4S (LPESG) over wt (LPETG); for specificity (relative cat. Efficiency, fold): ratio of kcat/Km between 4S (LPESG) and wt (LPETG) substrates; for kHydrolysis (Hz): 1 mM
Experimental: as §1, §2, §3

[4] = Example 5 variants, substrate 2A (LAETG)
[5] = Example 5 variants, substrate 2A (LAETG), read-out: Avg KM
[6] = Example 5 variants, read-out: Avg KM
[7] = 1 mM 4S (LPESG) substrate, read-out: Km, GGG
[8] = Example 5 variants, substrate 4S (LPESG)
[9] = Example 5 variants, substrate 4S (LPESG), read-out: Avg KM
[10] = substrate 4S (LPESG), read-out: Km, LxExG
[11] = substrate 2A (LAETG), read-out: Km, LxExG
[12] = GGG varied, substrate 2A (LAETG)

Row | Molecule | Avg kcat (Hz) [1, 4] [Hz] | Km [1, 5] [mM] | Specificity (relative catalytic efficiency, fold) [1] [fold] | Avg kcat (Hz) ([2]; Example 5 variants) | Km [2, 6] [mM] | Avg kcat (Hz) [3, 8] [Hz] | Km [3, 9] [mM] | Specificity ([3]; ratio of kcat/KM) | kcat, 10 mM GGG (Hz) ([3]; substrate 4S (LPESG)) | Km [3, 10] [mM] | kcat, 10 mM GGG (Hz) [2] [Hz] | Km ([2]; read-out: Km, LxExG) [mM] | also measured
1 | B1 | 1.117 | 1.62 | 1.436 | 2.653 | 2.1 |  |  |  |  |  |  |  | preference for LPETG over LAETG ([1]; ratio of kcat/KM): 1.4 fold; reduced catalytic efficiency ([1]; round 3 clone, LAETG target): > 10 fold
2 | B2 |  |  |  | 0.00606 | 0.0117 | 0.3877 | 0.076 | 9.672 | 0.3877 | 0.076 | 0.006149 | 0.0122 | Khydrolysis ([3]; 1 mM 4S (LPESG) substrate): 190.8 µM; kcat, 1 mM LxExG (Hz) ([3]; 1 mM 4S (LPESG) substrate): 1.342 Hz; Km [3, 7]: 26.7 mM; increase in kcat/Km for LPESG as compared to LPETG ([3]; FIG. 2): ~2 fold; increased affinity (KM) for the LPESG substrate as compared to the LPETG substrate ([3]; FIG. 2): ~8 fold; KH (KH,LPESG) ([3]; LPESG substrate): 190 ± 16 µM; specificity (relative cat. Efficiency, fold) [3]: 9.999 fold; kL/KL/KH ([3]; substrate 4S (LPESG)): 2.69E+07; kHydrolysis (Hz) ([3]; substrate 4S (LPESG)): 0.009551 Hz
3 | B3 |  |  |  |  |  |  |  |  |  |  | 0.1572 | 3.29 | Khydrolysis ([1]; 1 mM 2A (LAETG) substrate): 135.8 µM; kcat, 1 mM LxExG (Hz) ([1]; 1 mM 2A (LAETG) substrate, GGG varied): 1.714 Hz; Km ([1]; 1 mM 2A (LAETG) substrate, read-out: Km, GGG): 1.04 mM; specificity (relative cat. Efficiency, fold) ([1]; ratio of kcat/Km between 2A (LAETG) and wt (LPETG) substrates, favoured over disfavoured): 86.36 fold; kL/KL/KH ([1]; substrate 2A (LAETG)): 3.04E+07; kHydrolysis (Hz) ([1]; substrate 2A (LAETG), 1 mM, GGG varied): 0.2252 Hz; kcat, 10 mM GGG (Hz) ([1]; substrate 2A (LAETG)): 2.47 Hz; Km [1, 11]: 0.608 mM
4 | B4 | 1.14 | 6.37 | 2.252 | 1.525 | 3.75 |  |  |  |  |  | 1.587 | 4.11 | lower activity than that of eSrtA on its native LPETG substrate ([1]; minimal mutant, LPETG and LAETG processed): ~100 fold; kcat, 10 mM GGG (Hz) ([1]; substrate 2A (LAETG)): 1.249 Hz; Km [1, 11]: 7.16 mM
5 | B5 |  |  |  | 0.007565 | 3.39 | 2.543 | 3.33 | 244.976 |  |  |  |  | preference for LPESG over LPETG ([3]; ratio of kcat/KM): 245 fold; reduced catalytic efficiency ([3]; round 3 clone, LPESG target): > 10 fold
6 | B6 |  |  |  |  |  |  |  |  | 1.242 | 0.312 | 1.081 | 0.238 | Khydrolysis ([3]; 1 mM 4S (LPESG) substrate): 122.3 µM; kcat, 1 mM LxExG (Hz) ([3]; 1 mM 4S (LPESG) substrate): 2.132 Hz; Km [3, 7]: 15.7 mM; increased affinity (KM) for the LPESG substrate as compared to the LPETG substrate ([3]; FIG. 2): ~2 fold; specificity (relative cat. Efficiency, fold) [3]: 0.9102 fold; kL/KL/KH ([3]; substrate 4S (LPESG)): 3.38E+07; kHydrolysis (Hz) ([3]; substrate 4S (LPESG)): 0.0167 Hz
7 | B7 |  |  |  | 5.482 | 39.3 | 5.779 | 38.8 | 1.454 | 1.118 | 7.31 |  |  | lower activity than that of eSrtA on its native LPETG substrate ([3]; minimal mutant, LPETG and LPESG processed): ~100 fold
8 | B8 | 2.579 | 0.665 | 82.4 | 0.1622 | 3.4 |  |  |  |  |  |  |  | KH ([1]; GGG concentration at which hydrolysis and transpeptidation rates are equal, 2A (LAETG) variant): 149 ± 63 µM; Avg kHydro (Hz) [1, 12]: 0.2347 Hz; Avg kcat (Hz) [1, 12]: 1.734 Hz; Km ([1]; KM for GGG, substrate 2A (LAETG), read-out: Avg KM): 1.11 mM; Avg KH ([1]; substrate 2A (LAETG)): 148.9406 µM
